Experimental findings from patent US20090186036A1 are described below.

Assay [1] concerns the target soluble recombinant human αvβ6 (human) (UniProt P06756). Nature of the assay: ELISA on plate-bound soluble αvβ6 in Ca/Mg [panel B]. For orientation: An ELISA detects its analyte on a solid surface through an enzyme-linked reagent.
Assay [2] addresses αvβ6 on β6-transfected FDC-P1 cells (murine) (UniProt P43406). Nature of the assay: β6-FDC-P1 cells to coated LAP, blocking.
The target in assay [3] is αvβ6 on β6-transfected SW480 cells (UniProt P06756). Nature of the assay: cell-based or functional assay.
The target is the same in assay [4]. Nature of the assay: adhesion of SW480β6 cells to LAP, % binding; blocked ligand LAP [SW480β6 panel].
The target in assay [5] is soluble recombinant human αvβ6 (human) (UniProt P06756). Nature of the assay: ELISA on plate-bound soluble αvβ6 in Mn (1 mM MnCl2) [panel B].
soluble recombinant human αvβ6 (human), sequence (P06756 31-992, chain 1 of 2): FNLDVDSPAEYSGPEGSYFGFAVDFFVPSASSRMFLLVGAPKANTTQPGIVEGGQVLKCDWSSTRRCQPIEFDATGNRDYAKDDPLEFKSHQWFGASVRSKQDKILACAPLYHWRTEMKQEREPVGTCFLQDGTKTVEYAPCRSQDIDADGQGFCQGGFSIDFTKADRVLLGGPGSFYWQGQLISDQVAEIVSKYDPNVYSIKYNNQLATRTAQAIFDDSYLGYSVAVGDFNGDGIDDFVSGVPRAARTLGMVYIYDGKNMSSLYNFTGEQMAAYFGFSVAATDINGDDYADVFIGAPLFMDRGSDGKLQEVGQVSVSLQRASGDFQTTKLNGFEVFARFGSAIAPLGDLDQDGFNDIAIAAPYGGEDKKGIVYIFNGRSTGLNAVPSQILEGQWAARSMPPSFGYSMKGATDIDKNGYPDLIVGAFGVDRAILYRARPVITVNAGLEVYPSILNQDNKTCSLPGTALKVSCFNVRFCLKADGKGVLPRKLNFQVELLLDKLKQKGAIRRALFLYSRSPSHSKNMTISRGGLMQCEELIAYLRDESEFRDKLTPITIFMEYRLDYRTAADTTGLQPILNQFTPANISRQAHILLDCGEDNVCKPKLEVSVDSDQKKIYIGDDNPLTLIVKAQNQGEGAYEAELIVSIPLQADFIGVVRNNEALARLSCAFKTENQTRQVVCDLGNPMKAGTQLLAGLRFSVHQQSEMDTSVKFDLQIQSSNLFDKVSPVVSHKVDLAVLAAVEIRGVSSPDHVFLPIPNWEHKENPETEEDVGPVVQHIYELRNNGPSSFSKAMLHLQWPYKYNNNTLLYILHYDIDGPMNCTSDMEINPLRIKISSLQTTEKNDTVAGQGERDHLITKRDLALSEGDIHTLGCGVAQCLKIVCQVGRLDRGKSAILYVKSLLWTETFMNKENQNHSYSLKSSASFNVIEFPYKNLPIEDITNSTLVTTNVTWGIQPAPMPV
soluble recombinant human αvβ6 (human), sequence (P18564 22-709, chain 2 of 2, further chain): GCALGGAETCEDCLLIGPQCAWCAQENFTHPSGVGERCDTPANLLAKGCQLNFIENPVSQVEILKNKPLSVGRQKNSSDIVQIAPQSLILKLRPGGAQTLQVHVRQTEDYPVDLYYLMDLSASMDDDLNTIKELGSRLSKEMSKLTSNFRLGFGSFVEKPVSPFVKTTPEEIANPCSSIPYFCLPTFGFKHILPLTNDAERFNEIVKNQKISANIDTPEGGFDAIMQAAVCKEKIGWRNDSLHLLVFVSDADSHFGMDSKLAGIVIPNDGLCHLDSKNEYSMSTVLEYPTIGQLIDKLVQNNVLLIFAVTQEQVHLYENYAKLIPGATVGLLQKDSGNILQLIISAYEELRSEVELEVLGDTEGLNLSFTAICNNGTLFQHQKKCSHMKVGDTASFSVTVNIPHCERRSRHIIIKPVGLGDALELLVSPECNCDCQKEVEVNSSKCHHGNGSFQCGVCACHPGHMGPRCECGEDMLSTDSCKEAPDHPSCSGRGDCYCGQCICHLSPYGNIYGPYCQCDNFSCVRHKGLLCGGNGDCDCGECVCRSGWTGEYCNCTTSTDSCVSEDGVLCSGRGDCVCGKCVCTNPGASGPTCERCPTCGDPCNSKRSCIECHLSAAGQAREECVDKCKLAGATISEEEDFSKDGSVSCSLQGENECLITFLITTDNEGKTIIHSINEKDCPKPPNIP
Assay [6] has the same target. Description: ELISA, coated hsαvβ6.
The target is the same in assay [7]. Nature of the assay: KinExA, solution affinity for soluble αvβ6.
The target is the same in assay [8]. Description: ELISA on plate-bound soluble αvβ6 in EDTA (10 mM) [panel B].
The target of assay [9] is αvβ6 of human tumor cells and tissues (Detroit 562 cells, SCC-14 cells, carcinoma sections) (human) (UniProt P06756). Nature of the assay: adhesion of Detroit562 cells to LAP, % binding; blocked ligand LAP [Detroit562 panel].
Assay [10] addresses soluble recombinant human αvβ6 (human) (UniProt P06756). Description: biotin-hsαvβ6 to coated LAP, blocking.
For assay [11] the target is unchanged. Nature of the assay: KinExA, solution affinity for soluble αvβ6, with CaCl2 and MgCl2. (Kinetic exclusion samples the free partner from a solution-phase mixture.)
Assay [12] concerns the target αvβ6 on β6-transfected FDC-P1 cells (murine) (UniProt P43406). Description: adhesion of labelled β6-transfected FDC-P1 cells to plate-bound LAP, % binding; blocked ligand LAP.
Assay [13] has the same target. The assay is described as above. This is another data set of the same source.
The target in assay [14] is soluble recombinant human αvβ6 (human) (UniProt P06756). Nature of the assay: ELISA on plate-bound soluble αvβ6 in Mn (1 mM MnCl2) [panel C].
For assay [15] the target is unchanged. Description: ELISA on plate-bound soluble αvβ6 in Ca/Mg [panel C].
In assay [16] the target is αvβ6 on β6-transfected FDC-P1 cells (murine) (UniProt P43406). Nature of the assay: adhesion of labelled β6-transfected FDC-P1 cells to plate-bound LAP, % binding; blocked ligand LAP. The source holds these as a separate data set.
αvβ6 on β6-transfected FDC-P1 cells (murine), sequence (P43406 31-1044, chain 1 of 2): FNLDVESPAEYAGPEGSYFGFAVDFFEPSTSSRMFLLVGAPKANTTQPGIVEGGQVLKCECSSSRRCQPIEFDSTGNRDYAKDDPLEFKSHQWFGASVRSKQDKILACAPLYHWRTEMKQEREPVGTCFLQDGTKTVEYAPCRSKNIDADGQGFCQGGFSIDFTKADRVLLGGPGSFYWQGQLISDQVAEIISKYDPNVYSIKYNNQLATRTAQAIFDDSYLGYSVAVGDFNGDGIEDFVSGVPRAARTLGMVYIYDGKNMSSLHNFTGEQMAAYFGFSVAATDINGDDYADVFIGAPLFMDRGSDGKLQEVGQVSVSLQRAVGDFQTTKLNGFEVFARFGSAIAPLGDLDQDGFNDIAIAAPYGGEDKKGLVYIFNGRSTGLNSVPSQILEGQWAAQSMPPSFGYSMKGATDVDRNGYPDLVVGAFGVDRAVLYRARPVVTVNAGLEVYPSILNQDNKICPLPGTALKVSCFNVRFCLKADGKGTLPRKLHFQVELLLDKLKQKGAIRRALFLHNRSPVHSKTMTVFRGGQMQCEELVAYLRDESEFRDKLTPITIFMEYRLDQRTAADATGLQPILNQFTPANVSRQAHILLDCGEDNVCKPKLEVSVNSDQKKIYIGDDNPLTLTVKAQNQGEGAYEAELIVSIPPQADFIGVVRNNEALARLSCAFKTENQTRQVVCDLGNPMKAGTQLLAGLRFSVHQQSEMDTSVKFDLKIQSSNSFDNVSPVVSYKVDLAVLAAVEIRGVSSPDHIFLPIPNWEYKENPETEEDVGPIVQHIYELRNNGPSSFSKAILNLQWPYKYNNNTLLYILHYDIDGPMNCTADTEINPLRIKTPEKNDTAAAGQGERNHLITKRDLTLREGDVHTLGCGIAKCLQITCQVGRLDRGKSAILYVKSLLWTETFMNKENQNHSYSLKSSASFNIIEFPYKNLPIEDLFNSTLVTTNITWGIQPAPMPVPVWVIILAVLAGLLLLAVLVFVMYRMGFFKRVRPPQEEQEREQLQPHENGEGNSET
αvβ6 on β6-transfected FDC-P1 cells (murine), sequence (Q9Z0T9 22-787, chain 2 of 2, further chain): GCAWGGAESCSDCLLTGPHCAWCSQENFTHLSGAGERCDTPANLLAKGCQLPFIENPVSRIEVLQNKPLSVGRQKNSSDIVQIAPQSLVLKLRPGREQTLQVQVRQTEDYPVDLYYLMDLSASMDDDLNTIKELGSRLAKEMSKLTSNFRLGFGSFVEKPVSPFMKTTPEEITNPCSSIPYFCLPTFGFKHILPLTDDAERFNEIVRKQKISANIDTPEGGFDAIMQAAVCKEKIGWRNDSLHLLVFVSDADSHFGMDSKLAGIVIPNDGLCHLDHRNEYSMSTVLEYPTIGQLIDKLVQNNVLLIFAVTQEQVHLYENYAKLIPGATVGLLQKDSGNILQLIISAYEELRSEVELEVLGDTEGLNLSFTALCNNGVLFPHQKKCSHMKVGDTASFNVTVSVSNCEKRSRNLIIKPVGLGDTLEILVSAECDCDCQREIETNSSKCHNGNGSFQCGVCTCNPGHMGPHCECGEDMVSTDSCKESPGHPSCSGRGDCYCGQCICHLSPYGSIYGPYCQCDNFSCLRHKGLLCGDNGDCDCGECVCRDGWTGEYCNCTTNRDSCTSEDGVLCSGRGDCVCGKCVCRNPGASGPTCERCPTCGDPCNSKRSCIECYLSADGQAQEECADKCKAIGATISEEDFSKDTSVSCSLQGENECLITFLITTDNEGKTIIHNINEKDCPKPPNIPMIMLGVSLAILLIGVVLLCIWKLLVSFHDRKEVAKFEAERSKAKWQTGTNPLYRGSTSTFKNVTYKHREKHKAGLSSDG
For assay [17], the target named is soluble recombinant human αvβ6 (human) (UniProt P06756). Description: ELISA on plate-bound soluble αvβ6 in EDTA (10 mM) [panel F].
Assay [18] shares this target. Description: ELISA on plate-bound soluble αvβ6 in Ca/Mg [panel F].
Assay [19] shares this target. Nature of the assay: ELISA on plate-bound soluble αvβ6 in Mn (1 mM MnCl2) [panel F].

pKd: −log10 of the molar value.

Regarding 6.3G9 (antibody), the EC50 (read off the curve) in assay [1], in [5] and in assay [8] was 0.09 µg/mL in each case. In addition, the IC50 turned out to be 0.017 µg/mL in assay [2] and 0.271 µg/mL in assay [10]. In assay [3], this substance registered a PAI-1 luciferase IC50 of 0.375 µg/mL. Further, the figures for the IC50 (read off the curve) in assay [4] and in assay [9] were 0.03 µg/mL and 0.04 µg/mL, respectively. The EC50 in assay [6] is 0.0767 µg/mL. In addition, the pKd in assay [7] is 10.81.
On to 6.8G6 (antibody), for which the IC50 came out at 0.023 µg/mL in assay [2]; 0.083 µg/mL in assay [12]; 0.061 µg/mL in assay [13]; 0.101 µg/mL in assay [16]; 0.169 µg/mL in assay [10]. Moreover, the pKd in assay [11] is 10.64. Also, the values for the EC50 (read off the curve) in assay [14] and in [15] were 0.03 µg/mL and 0.02 µg/mL, respectively. Moreover, the PAI-1 luciferase IC50 in assay [3] worked out at 0.312 µg/mL. For the same substance, the EC50 in assay [6] was 0.0175 µg/mL.
Consider L230 (antibody), for which the EC50 (read off the curve) in [17], in [18] and in [19] was 0.01 µg/mL throughout. Further, in assay [6], the EC50 was determined as 0.0271 µg/mL. Also, the IC50 in assay [10] was found to be 0.229 µg/mL.

Usually EC50 (read off the curve) stands for the concentration at which the effect is half-maximal. For orientation: IC50 means the concentration at which inhibition is half-maximal. A word on the EC50: it is the concentration needed to bring the measured effect to its halfway point. What is called pKd is the Kd on a negative log10 scale, so that one unit is a factor of ten.
